Measurements as given in paper PMC2132798 (The Journal of Cell Biology, 1998).

B1: Vrp1p (195–817) (domain or fragment, S. cerevisiae, UniProt P37370 195-817, looked up)
chain: HMPSVRPAHRSHQRKSSNISLPSVSAPPLPSASLPTHVSNPPQAPPPPPTPTIGLDSKNIKPTDNAVSPPSSEVPAGGLPFLAEINARRSERGAVEGVSSTKIQTENHKSPSQPPLPSSAPPIPTSHAPPLPPTAPPPPSLPNVTSAPKKATSAPAPPPPPLPAAMSSASTNSVKATPVPPTLAPPLPNTTSVPPNKASSMPAPPPPPPPPPGAFSTSSALSASSIPLAPLPPPPPPSVATSVPSAPPPPPTLTTNKPSASSKQSKISSSSSSSAVTPGGPLPFLAEIQKKRDDRFVVGGDTGYTTQDKQEDVIGSSKDDNVRPSPISPSINPPKQSSQNGMSFLDEIESKLHKQTSSNAFNAPPPHTDAMAPPLPPSAPPPPITSLPTPTASGDDHTNDKSETVLGMKKAKAPALPGHVPPPPVPPVLSDDSKNNVPAASLLHDVLPSSNLEKPPSPPVAAAPPLPTFSAPSLPQQSVSTSIPSPPPVAPTLSVRTETESISKNPTKSPPPPPSPSTMDTGTSNSPSKNLKQRLFSTGGSTLQHKHNTHTNQPDVDVGRYTIGGSNSIVGAKSGNERIVIDDSRFKWTNVSQMPKPRPFQNKTKLYPSGKGSSVPLDLTLFT
B2: Vrp1p (1–200) (domain or fragment, S. cerevisiae, UniProt P37370 1-200, looked up)
chain: MAGAPAPPPPPPPPALGGSAPKPAKSVMQGRDALLGDIRKGMKLKKAETNDRSAPIVGGGVVSSASGSSGTVSSKGPSMSAPPIPGMGAPQLGDILAGGIPKLKHINNNASTKPSPSASAPPIPGAVPSVAAPPIPNAPLSPAPAVPSIPSSSAPPIPDIPSSAAPPIPIVPSSPAPPLPLSGASAPKVPQNRPHMPSVR
B3: Myo3p (1,118–1,271) (domain or fragment, S. cerevisiae, UniProt P36006 1118-1271, looked up)
chain: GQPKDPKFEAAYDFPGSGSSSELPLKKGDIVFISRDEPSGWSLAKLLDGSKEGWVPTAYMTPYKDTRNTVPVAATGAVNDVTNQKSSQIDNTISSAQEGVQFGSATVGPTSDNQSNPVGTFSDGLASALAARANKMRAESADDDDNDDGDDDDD
B4: Myo5p (1,082–1,219) (domain or fragment, S. cerevisiae, UniProt Q04439 1082-1219, looked up)
chain: SSKPKEPMFEAAYDFPGSGSPSELPLKKGDVIYITREEPSGWSLGKLLDGSKEGWVPTAYMKPHSGNNNIPTPPQNRDVPKPVLNSVQHDNTSANVIPAAAQASLGDGLANALAARANKMRLESDDEEANEDEEEDDW

Assays:
Assay in all cases: two-hybrid
Myo3p (1,118–1,271) = target: B3
Myo5p (1,082–1,219) = target: B4
Vrp1p (1–200) = target: B2
Vrp1p (195–817) = target: B1

Binder | lacZ activity (Miller units) (Myo3p (1,118–1,271)) | lacZ activity (Miller units) (Myo5p (1,082–1,219)) | lacZ activity (Miller units) (Vrp1p (1–200)) | lacZ activity (Miller units) (Vrp1p (195–817))
B1 | 74.5 ± 4.3 | 28.5 ± 2 | – | –
B2 | 254 ± 27.1 | 140 ± 2.3 | – | –
B3 | – | – | 1610 ± 264 | 96.3 ± 21.8
B4 | – | – | 1060 ± 149 | 345 ± 7.3
